Test results taken from the supplement of paper PMC10065799, “High-throughput profiling of sequence recognition by tyrosine kinases and SH2 domains using bacterial peptide display” (eLife, 2023).

Assays:
Grb2 SH2 = Grb2 SH2 (UniProt P62993); assay: SH2 binding enrichment of the phosphorylated peptide, bacterial display (enrichment ratio); higher = better substrate or ligand; peptides without Tyr show the background
SHP2-C SH2 = assay: as above
c-Src SH2 = assay: as above
Fyn = Fyn (UniProt P06241); assay: phosphorylation enrichment, bacterial display (enrichment ratio); higher = better substrate or ligand; peptides without Tyr show the background
c-Abl (mouse) = assay: as above
EPHB2 = EPHB2 (UniProt P29323); assay: as above
FGFR3 = FGFR3 (UniProt P22607); assay: as above
c-Src = assay: as above
Fer (mouse) = assay: as above
Fes = Fes (UniProt P07332); assay: as above
AncSZ = assay: as above
MERTK = MERTK (UniProt Q12866); assay: as above
EPHB1 = EPHB1 (UniProt P54762); assay: as above
Jak2 = Jak2 (UniProt O60674); assay: as above
FGFR1 = FGFR1 (UniProt P11362); assay: as above
Hck = Hck (UniProt P08631); assay: as above
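Wherever SH2 binding enrichment of the phosphorylated peptide, bacterial display is given: peptide library displayed on the E. coli surface as eCPX fusions, selected cells deep-sequenced, score is each peptide's frequency after selection divided by its frequency in the input.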
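Wherever phosphorylation enrichment, bacterial display is given: 11-residue human phosphosite peptides and single-mutation variants displayed on the E. coli surface, counted by deep sequencing, each peptide's frequency after selection divided by its frequency in the unselected input library; frequency after pTyr selection over input frequency; kinase dosed for 20-30% of maximal phosphorylation in three min.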

EPHB1, sequence (P54762 whole entry, looked up): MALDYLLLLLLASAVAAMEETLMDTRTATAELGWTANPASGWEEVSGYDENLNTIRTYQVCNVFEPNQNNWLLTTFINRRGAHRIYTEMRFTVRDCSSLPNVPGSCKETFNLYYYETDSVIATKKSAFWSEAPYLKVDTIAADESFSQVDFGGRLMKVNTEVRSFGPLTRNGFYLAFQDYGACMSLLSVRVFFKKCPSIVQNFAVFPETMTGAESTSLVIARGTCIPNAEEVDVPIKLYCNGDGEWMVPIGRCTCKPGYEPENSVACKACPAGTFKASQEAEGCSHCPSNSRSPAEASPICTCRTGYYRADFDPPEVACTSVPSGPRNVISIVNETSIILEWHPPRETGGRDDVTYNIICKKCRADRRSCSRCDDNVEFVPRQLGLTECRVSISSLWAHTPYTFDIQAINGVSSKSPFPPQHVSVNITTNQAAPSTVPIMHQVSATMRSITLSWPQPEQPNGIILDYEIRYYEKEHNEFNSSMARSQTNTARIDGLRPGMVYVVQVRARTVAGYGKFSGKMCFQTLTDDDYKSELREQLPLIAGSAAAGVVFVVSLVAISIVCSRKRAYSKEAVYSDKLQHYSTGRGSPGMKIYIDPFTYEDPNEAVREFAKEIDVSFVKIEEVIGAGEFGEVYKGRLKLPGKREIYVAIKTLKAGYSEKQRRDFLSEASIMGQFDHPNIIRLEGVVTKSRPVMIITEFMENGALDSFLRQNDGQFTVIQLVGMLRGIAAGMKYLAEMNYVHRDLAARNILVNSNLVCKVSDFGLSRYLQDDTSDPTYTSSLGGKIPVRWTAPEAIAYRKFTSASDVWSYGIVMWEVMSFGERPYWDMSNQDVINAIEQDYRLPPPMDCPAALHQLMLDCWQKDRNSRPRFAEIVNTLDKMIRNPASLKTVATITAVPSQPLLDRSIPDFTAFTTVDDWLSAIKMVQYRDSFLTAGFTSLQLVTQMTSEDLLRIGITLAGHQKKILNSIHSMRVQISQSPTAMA
Fyn, sequence (P06241 whole entry, looked up): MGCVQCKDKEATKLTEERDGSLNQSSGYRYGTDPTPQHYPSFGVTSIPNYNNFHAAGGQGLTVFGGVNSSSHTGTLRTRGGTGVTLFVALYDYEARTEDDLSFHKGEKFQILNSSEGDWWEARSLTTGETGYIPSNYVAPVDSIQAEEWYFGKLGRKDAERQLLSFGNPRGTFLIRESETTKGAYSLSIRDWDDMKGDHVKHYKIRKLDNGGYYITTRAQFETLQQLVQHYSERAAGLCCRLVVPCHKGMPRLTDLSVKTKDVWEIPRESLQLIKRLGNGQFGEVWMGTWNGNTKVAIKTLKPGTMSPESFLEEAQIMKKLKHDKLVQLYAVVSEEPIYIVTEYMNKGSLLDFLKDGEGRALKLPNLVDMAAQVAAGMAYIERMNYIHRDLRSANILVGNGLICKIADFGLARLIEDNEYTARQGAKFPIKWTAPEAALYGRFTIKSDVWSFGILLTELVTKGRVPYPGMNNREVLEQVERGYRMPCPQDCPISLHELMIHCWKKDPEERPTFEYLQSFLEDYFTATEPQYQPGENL
Hck, sequence (P08631 whole entry, looked up, the tested form may be a part): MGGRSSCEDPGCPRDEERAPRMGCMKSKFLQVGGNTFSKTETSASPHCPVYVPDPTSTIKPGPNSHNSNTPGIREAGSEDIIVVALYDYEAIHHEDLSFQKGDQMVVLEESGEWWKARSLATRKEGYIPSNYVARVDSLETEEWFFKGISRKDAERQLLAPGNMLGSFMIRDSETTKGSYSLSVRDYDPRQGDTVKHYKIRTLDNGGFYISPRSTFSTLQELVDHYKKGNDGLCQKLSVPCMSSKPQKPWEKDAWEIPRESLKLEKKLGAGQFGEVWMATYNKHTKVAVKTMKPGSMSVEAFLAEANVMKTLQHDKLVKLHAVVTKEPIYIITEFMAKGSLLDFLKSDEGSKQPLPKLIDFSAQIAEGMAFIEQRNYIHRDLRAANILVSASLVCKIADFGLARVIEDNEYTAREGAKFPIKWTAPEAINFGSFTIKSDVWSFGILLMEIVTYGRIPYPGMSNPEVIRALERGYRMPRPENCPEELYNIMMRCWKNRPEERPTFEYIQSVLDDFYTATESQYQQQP
FGFR3, sequence (P22607 whole entry, looked up): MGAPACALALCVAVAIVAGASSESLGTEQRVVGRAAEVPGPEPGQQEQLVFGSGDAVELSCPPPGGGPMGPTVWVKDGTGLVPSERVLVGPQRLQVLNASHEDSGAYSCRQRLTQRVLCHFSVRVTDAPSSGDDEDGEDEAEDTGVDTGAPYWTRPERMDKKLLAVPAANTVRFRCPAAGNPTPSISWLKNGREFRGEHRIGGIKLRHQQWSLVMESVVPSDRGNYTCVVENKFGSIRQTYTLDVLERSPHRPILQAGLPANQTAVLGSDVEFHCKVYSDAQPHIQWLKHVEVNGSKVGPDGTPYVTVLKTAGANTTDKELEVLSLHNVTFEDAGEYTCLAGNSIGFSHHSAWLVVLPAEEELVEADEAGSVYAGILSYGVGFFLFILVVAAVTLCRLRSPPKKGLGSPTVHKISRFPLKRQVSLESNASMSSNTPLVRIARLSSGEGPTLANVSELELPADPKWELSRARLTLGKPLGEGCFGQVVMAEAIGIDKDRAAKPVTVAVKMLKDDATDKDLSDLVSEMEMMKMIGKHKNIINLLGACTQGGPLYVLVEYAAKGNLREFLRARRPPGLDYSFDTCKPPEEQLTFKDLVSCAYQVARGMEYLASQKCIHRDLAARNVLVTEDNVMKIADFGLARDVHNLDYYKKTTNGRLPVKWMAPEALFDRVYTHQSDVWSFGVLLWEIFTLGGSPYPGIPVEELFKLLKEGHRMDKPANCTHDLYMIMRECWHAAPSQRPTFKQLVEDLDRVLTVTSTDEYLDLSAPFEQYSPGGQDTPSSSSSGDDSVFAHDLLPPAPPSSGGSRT
Jak2, sequence (O60674 whole entry, looked up): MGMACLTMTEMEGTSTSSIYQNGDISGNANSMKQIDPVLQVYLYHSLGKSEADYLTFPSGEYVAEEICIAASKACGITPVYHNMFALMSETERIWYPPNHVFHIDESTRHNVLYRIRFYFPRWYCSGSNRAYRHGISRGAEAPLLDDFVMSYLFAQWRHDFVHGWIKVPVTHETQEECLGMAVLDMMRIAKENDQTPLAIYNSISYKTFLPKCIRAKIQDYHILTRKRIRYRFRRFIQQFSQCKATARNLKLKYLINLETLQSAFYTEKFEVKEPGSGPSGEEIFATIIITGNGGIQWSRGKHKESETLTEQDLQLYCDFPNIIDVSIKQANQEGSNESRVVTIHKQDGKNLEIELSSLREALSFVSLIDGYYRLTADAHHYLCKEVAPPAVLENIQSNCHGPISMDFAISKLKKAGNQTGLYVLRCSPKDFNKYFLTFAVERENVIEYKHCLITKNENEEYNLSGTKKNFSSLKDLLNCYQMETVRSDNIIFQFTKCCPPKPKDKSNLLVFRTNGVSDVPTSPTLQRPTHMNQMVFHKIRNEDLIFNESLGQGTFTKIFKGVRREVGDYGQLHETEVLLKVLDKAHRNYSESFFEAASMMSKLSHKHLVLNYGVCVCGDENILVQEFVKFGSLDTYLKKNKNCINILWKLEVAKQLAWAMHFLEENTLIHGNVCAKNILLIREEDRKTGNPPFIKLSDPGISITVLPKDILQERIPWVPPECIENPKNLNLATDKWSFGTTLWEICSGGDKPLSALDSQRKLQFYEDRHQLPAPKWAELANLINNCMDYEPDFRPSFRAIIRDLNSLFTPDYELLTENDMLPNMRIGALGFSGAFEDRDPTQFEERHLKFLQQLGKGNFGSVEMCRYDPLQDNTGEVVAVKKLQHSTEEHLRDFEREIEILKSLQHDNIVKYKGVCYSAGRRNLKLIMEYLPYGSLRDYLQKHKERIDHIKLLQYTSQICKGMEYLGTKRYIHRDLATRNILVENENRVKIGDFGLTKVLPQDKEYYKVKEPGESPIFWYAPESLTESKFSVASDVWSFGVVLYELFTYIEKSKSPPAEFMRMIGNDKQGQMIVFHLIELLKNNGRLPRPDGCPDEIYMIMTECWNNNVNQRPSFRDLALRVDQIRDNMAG
Fes, sequence (P07332 whole entry, looked up): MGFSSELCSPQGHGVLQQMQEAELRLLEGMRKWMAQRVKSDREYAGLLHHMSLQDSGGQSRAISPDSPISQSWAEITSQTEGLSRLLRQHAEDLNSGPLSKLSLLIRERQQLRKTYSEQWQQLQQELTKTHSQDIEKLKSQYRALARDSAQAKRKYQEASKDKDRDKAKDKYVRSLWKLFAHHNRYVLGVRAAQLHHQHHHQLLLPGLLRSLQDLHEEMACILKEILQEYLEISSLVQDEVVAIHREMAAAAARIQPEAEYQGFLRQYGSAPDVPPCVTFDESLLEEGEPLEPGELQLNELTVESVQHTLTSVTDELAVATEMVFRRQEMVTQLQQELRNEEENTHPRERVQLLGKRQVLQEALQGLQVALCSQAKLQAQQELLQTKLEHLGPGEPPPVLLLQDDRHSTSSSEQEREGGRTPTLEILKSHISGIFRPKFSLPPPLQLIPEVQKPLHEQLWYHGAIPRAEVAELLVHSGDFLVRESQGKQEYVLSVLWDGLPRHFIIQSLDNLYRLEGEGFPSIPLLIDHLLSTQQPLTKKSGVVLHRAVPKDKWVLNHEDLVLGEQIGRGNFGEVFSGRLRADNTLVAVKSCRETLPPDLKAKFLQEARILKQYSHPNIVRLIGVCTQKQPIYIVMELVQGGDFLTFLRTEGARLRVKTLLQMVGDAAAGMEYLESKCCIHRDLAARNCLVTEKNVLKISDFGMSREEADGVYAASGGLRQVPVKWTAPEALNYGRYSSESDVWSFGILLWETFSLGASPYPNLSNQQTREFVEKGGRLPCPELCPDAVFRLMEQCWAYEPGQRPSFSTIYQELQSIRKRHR

SH2 binding enrichment (Grb2 SH2) | SH2 binding enrichment (SHP2-C SH2) | SH2 binding enrichment (c-Src SH2) | Sequence | phosphorylation enrichment (Fyn) | phosphorylation enrichment (c-Abl (mouse)) | phosphorylation enrichment (EPHB2) | phosphorylation enrichment (FGFR3) | phosphorylation enrichment (c-Src) | phosphorylation enrichment (Fer (mouse)) | phosphorylation enrichment (Fes) | phosphorylation enrichment (AncSZ) | phosphorylation enrichment (MERTK) | phosphorylation enrichment (EPHB1) | phosphorylation enrichment (Jak2) | phosphorylation enrichment (FGFR1) | phosphorylation enrichment (Hck)
0.81 | 0.936 | 0.48 | DLITAYRAHGF [PDHA1_Y118_H113D] | 0.401 | 0.535 | 0.428 | 0.54 | 0.373 | 0.387 | 0.756 | 0.543 | 0.355 | 0.409 | 0.563 | 0.525 | 0.49
2.06 | 0.748 | 0.752 | PDGHEYIYVDP [PDGFRA_Y572] | 1.32 | 2.84 | 2.66 | 7.36 | 3.24 | 2.64 | 1.39 | 5.55 | 1.46 | 3.21 | 1.81 | 11.7 | 1.6
1.06 | 0.812 | 0.925 | TVQVAYYTVMM [SPATA17_Y83_M86V] | 1.59 | 0.972 | 1.61 | 4.63 | 2.09 | 1.59 | 1.5 | 1.52 | 5.44 | 2.96 | 2.57 | 5.72 | 1.74
0.911 | 0.725 | 0.849 | QNTGDYYDLYG [PTPN11_Y62] | 5.48 | 1.1 | 17.8 | 16.1 | 5.07 | 1.31 | 1.29 | 5.36 | 4.37 | 16.7 | 5.11 | 17.1 | 4.7
0.823 | 0.56 | 0.557 | ECKASYPGKIT [PRSS3_Y232] | 0.319 | 0.489 | 0.389 | 0.418 | 0.438 | 0.396 | 0.596 | 0.53 | 0.402 | 0.357 | 0.396 | 0.431 | 0.323
1.04 | 1.12 | 9.16 | HSYNSYTYPRL [PAK5_Y316] | 0.449 | 0.553 | 0.508 | 0.532 | 0.652 | 0.554 | 0.682 | 0.776 | 1.78 | 0.472 | 0.716 | 0.658 | 0.485
0.772 | 0.694 | 1.16 | LHQSTYQRYDV [SLC7A14_Y693] | 0.458 | 0.444 | 0.53 | 0.426 | 1.11 | 0.392 | 0.404 | 0.341 | 0.364 | 0.293 | 0.545 | 0.236 | 0.505
0.903 | 0.661 | 0.511 | MPVDGYISGLL [PAK6_Y81] | 0.524 | 0.622 | 0.59 | 0.626 | 0.487 | 0.522 | 0.953 | 0.716 | 0.41 | 0.447 | 0.817 | 0.583 | 0.441

The next lines start with the sequence.

Sequence | SH2 binding enrichment (Grb2 SH2) | SH2 binding enrichment (SHP2-C SH2) | SH2 binding enrichment (c-Src SH2) | phosphorylation enrichment (Fyn) | phosphorylation enrichment (c-Abl (mouse)) | phosphorylation enrichment (EPHB2) | phosphorylation enrichment (FGFR3) | phosphorylation enrichment (c-Src) | phosphorylation enrichment (Fer (mouse)) | phosphorylation enrichment (Fes) | phosphorylation enrichment (AncSZ) | phosphorylation enrichment (MERTK) | phosphorylation enrichment (EPHB1) | phosphorylation enrichment (Jak2) | phosphorylation enrichment (FGFR1) | phosphorylation enrichment (Hck)
KLSFSYGWALQ [ALDOB_Y302_R304W] | 0.921 | 0.67 | 0.558 | 0.503 | 1.19 | 0.764 | 0.936 | 0.585 | 0.591 | 1.8 | 1.52 | 0.559 | 0.844 | 1.72 | 0.676 | 0.509
WDLPEYSFKDP [ITGA3_Y237_S235P_YF] | 0.931 | 1.04 | 0.502 | 3.1 | 0.871 | 0.571 | 0.836 | 1.02 | 0.421 | 1.25 | 2.37 | 0.381 | 0.558 | 1.18 | 0.486 | 1.19
KRPAVYIDEEA [EPM2A_Y304] | 0.949 | 0.709 | 0.711 | 0.567 | 0.746 | 0.514 | 0.704 | 0.542 | 0.548 | 1.07 | 1.07 | 0.518 | 0.547 | 0.901 | 0.598 | 0.485
RGFRQDAFDGK [HLA-A_Y140_YF] | 0.711 | 1.05 | 0.412 | 0.414 | 0.935 | 0.475 | 0.73 | 0.633 | 0.487 | 0.633 | 0.575 | 0.559 | 0.454 | 0.461 | 0.488 | 0.396
LQEQNYPAVDS [FAM114A1_Y115_L116P] | 0.698 | 0.508 | 0.655 | 0.92 | 1.13 | 1.26 | 1.54 | 0.699 | 0.878 | 1.86 | 2.01 | 0.81 | 1.37 | 1.54 | 0.988 | 0.739
VISNAYVDLSP [HSD17B4_Y602_A606S] | 0.593 | 0.753 | 3.09 | 0.534 | 0.711 | 0.523 | 0.62 | 0.525 | 0.511 | 0.818 | 1.11 | 0.518 | 0.443 | 0.829 | 0.896 | 0.542
LAVGDYMRRQK [ATM_Y1915_V1913G] | 0.597 | 0.695 | 0.37 | 0.545 | 0.555 | 0.41 | 0.411 | 0.503 | 0.504 | 0.734 | 0.696 | 0.476 | 0.441 | 0.691 | 0.437 | 0.504
HGQVNYEEFVQ [CALM2_Y139_D134H] | 0.694 | 0.651 | 0.828 | 1.28 | 0.911 | 5.8 | 1.02 | 0.803 | 1.26 | 1.92 | 1.89 | 0.92 | 6.37 | 1.24 | 0.795 | 1.37
VNCHQYDGLVG [ATP2A2_Y407_E412G] | 0.785 | 0.686 | 11.1 | 0.48 | 0.684 | 0.546 | 0.673 | 0.559 | 0.518 | 0.847 | 0.931 | 0.451 | 0.433 | 0.736 | 0.559 | 0.502
